Reference: patent US20200079833A1 (AstraZeneca / MedImmune, published 2020)
Starred links: 1 amine or outer side, 2 acyl side, 3 side chain; linkers in the order of their positions; H or OH if unused. Non-standard residues stand in square brackets, D forms with d. Groups on a side chain read outwards from the residue. Primed or numbered codes have the meaning given here. No end group written: not given here. *: point of attachment. Tyr(OMe) = COc1ccc(C[C@H](N[*:1])C(=O)[*:2])cc1; γGlu = O=C(O)[C@H](CCC(=O)[*:2])N[*:1]; Stearoyl = CCCCCCCCCCCCCCCCCC(=O)*; αMeF = C[C@](N)(Cc1ccccc1)C(=O)O; αMeK = C[C@](N)(CCCCN)C(=O)O; Lauroyl = CCCCCCCCCCCC(=O)*; αMeS = C[C@](N)(CO)C(=O)O; PEG2′ = not defined here; Aib = CC(C)(N)C(=O)O

What was measured:
Assay in all cases: cell-based or functional assay
[1] = target: GLP-1 receptor (GLP-1R), primary cAMP assay (human, UniProt P43220 24-463)
[2] = target: glucagon receptor (GCGR), primary cAMP assay (human, UniProt P47871 26-477)
glucagon receptor (GCGR), primary cAMP assay, sequence (P47871 26-477): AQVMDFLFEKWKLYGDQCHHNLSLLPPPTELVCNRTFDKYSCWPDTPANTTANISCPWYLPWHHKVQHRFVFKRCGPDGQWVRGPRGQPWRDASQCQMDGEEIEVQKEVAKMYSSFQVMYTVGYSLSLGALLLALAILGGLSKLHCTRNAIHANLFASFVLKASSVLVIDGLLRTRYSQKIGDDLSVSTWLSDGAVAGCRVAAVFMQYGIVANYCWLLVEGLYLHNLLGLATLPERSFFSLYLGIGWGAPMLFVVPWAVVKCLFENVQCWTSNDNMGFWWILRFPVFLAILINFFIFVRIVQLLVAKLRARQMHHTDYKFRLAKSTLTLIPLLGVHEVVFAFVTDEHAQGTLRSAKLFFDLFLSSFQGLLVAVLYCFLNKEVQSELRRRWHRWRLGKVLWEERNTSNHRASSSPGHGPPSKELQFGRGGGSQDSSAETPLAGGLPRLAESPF

[3] = target: T1, glucose-dependent insulinotropic peptide (gastric inhibitory polypeptide) receptor (GIPR), primary cAMP assay (human, UniProt P48546 22-466)
T1 sequence (looked up): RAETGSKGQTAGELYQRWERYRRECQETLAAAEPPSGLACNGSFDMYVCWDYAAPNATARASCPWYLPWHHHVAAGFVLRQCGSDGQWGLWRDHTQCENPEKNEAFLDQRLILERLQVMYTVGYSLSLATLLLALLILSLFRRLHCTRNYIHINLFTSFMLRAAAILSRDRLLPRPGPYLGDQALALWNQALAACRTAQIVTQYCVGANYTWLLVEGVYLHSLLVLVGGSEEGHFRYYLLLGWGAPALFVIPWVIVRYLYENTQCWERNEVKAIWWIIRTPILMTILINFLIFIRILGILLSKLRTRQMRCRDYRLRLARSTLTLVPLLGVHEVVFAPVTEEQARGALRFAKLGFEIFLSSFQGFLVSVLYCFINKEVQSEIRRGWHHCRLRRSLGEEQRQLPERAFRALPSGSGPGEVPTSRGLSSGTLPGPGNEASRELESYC

[4] = target: T2, GLP-1R in the INS1e assay (UniProt P32301 22-463, limits assumed)
T2 sequence (looked up): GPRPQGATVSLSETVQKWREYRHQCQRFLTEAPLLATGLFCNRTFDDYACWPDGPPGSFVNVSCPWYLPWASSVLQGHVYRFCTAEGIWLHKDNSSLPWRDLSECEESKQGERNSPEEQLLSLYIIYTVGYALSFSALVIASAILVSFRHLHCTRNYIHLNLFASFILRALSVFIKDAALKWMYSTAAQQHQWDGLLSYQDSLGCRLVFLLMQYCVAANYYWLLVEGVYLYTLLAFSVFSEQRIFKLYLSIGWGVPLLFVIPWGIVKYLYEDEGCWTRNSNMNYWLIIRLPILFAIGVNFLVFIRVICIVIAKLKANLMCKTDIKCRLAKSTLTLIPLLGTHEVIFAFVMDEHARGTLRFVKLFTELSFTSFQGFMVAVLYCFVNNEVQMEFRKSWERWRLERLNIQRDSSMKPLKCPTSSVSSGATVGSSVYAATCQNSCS

[5] = target: GLP-1 receptor (GLP-1R), primary cAMP assay cell line (human, UniProt P43220 24-463)
[6] = target: glucagon receptor (GCGR), primary cAMP assay cell line (human, UniProt P47871 26-477)
glucagon receptor (GCGR), primary cAMP assay cell line, sequence (P47871 26-477): as the sequence (P47871 26-477) above

[7] = target: T3, glucose-dependent insulinotropic peptide (gastric inhibitory polypeptide) receptor (GIPR), primary cAMP assay … (human, UniProt P48546 22-466)
T3 sequence (looked up): T1 sequence (looked up)

[8] = target: T4, GLP-1R in the INS1e assay (UniProt P32301 22-463, limits assumed); remark: listed apart in the source
T4 sequence (looked up): T2 sequence (looked up)

Binder | Primary assay EC50 (cAMP) Mean [1] [nM] | Primary assay EC50 (cAMP), n1 [1] [nM] | Primary assay EC50 (cAMP), n2 [1] [nM] | Primary assay EC50 (cAMP), n1 [2] [nM] | Primary assay EC50 (cAMP), n2 [2] [nM] | Primary assay EC50 (cAMP), n1 [3] [nM] | Primary assay EC50 (cAMP), n2 [3] [nM] | INS1e assay EC50 (cAMP) Mean [4] [nM] | INS1e assay EC50 (cAMP) n1 [4] [nM] | INS1e assay EC50 (cAMP) n2 [4] [nM] | cAMP Primary assay EC50, Mean pM GLP-1R [5] [pM] | cAMP Primary assay EC50, n1 [5] [nM] | cAMP Primary assay EC50, n2 [5] [nM] | cAMP Primary assay EC50, n1 [6] [nM] | cAMP Primary assay EC50, n2 [6] [nM] | cAMP Primary assay EC50, n1 [7] [nM] | cAMP Primary assay EC50, n2 [7] [nM] | cAMP INS1e assay EC50, Mean pM GLP-1R [8] [pM] | cAMP INS1e assay EC50, n1 [8] [nM] | cAMP INS1e assay EC50, n2 [8] [nM]
H[Aib]EGS[αMeF]TSDV[αMeS]SK([PEG2′-PEG2′-γGlu-Stearoyl])LEGEAA[αMeK]E[αMeF]IAK([PEG2′-PEG2′-γGlu-Stearoyl])VVEGG-NH2 [SEQ ID NO: 410] | 0.187 | 0.248 | 0.126 | 21.5 | 21.5 | 21.5 | 21.5 | 0.78 | 0.698 | 0.862 |  |  |  |  |  |  |  |  |  | 
H[Aib]EGS[αMeF]TSDV[αMeS]SYK([PEG2′-PEG2′-γGlu-Lauroyl])EGEAA[αMeK]EFIAWK([PEG2′-PEG2′-γGlu-Lauroyl])VEGG-NH2 [SEQ ID NO: 270] | 0.0329 | 0.0293 | 0.0365 | 22.3 | 22.3 | 22.3 | 22.3 | 1.72 | 1.41 | 2.02 |  |  |  |  |  |  |  |  |  | 
H[Aib]EGS[αMeF]TSDK([PEG2′-PEG2′-γGlu-Lauroyl])SSYLEK([PEG2′-PEG2′-γGlu-Lauroyl])EAA[αMeK]EFIAK([PEG2′-PEG2′-γGlu-Lauroyl])VVEGG-NH2 [SEQ ID NO: 455] |  |  |  |  |  |  |  |  |  |  | 87.4 | 0.0548 | 0.12 | 19.8 | 19.8 | 19.8 | 19.8 | 4910 | 6.74 | 3.08
H[Aib]EGS[αMeF]TSDV[αMeS]SK([PEG2′-PEG2′-γGlu-Lauroyl])LEGEAA[αMeK]E[αMeF]IAK([PEG2′-PEG2′-γGlu-Lauroyl])VVEGG-NH2 [SEQ ID NO: 405] | 0.0039 | 0.00405 | 0.00366 | 21.5 | 21.5 | 21.5 | 21.5 | 0.116 | 0.11 | 0.121 |  |  |  |  |  |  |  |  |  | 
H[Aib]EGS[αMeF]TSDV[αMeS]SK([PEG2′-PEG2′-γGlu-Lauroyl])LEGEAA[αMeK]E[Tyr(OMe)]IAK([PEG2′-PEG2′-γGlu-Lauroyl])VVEGG-NH2 [SEQ ID NO: 406] | 0.0023 | 0.00219 | 0.00231 | 21.5 | 21.5 | 21.5 | 21.5 | 0.094 | 0.101 | 0.0872 |  |  |  |  |  |  |  |  |  | 
H[Aib]EGS[αMeF]TSDV[αMeS]SYK([PEG2′-PEG2′-γGlu-Lauroyl])EGEAA[αMeK]EFIAK([PEG2′-PEG2′-γGlu-Lauroyl])VVEGG-NH2 [SEQ ID NO: 269] | 0.0046 | 0.00401 | 0.00524 | 22.8 | 22.8 | 22.8 | 22.8 | 0.212 | 0.243 | 0.181 |  |  |  |  |  |  |  |  |  | 
